The results in this text go back to PMC10572825.

For the experiment, the target named is CXCL12 (Homo sapiens) (UniProt P48061). Description: isothermal fluorescence titration. Conditions: FITC-labelled tenascin-C.
Chain of CXCL12 (Homo sapiens) (P48061 22-89): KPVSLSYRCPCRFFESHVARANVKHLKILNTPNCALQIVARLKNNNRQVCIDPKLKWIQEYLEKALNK

A word on the Kd: it is a measure of binding affinity in units of concentration. In the case of Tenascin-C, Q80YX1, the Kd came to 1010 nM.
